Source: IntAct's records for PubMed 12522104

B1: Peroxisome proliferator-activated receptor gamma coactivator 1-alpha (Homo sapiens), Q9UBK2 (parent)
chain: MAWDMCNQDSESVWSDIECAALVGEDQPLCPDLPELDLSELDVNDLDTDSFLGGLKWCSDQSEIISNQYNNEPSNIFEKIDEENEANLLAVLTETLDSLPVDEDGLPSFDALTDGDVTTDNEASPSSMPDGTPPPQEAEEPSLLKKLLLAPANTQLSYNECSGLSTQNHANHNHRIRTNPAIVKTENSWSNKAKSICQQQKPQRRPCSELLKYLTTNDDPPHTKPTENRNSSRDKCTSKKKSHTQSQSQHLQAKPTTLSLPLTPESPNDPKGSPFENKTIERTLSVELSGTAGLTPPTTPPHKANQDNPFRASPKLKSSCKTVVPPPSKKPRYSESSGTQGNNSTKKGPEQSELYAQLSKSSVLTGGHEERKTKRPSLRLFGDHDYCQSINSKTEILINISQELQDSRQLENKDVSSDWQGQICSSTDSDQCYLRETLEASKQVSPCSTRKQLQDQEIRAELNKHFGHPSQAVFDDEADKTGELRDSDFSNEQFSKLPMFINSGLAMDGLFDDSEDESDKLSYPWDGTQSYSLFNVSPSCSSFNSPCRDSVSPPKSLFSQRPQRMRSRSRSFSRHRSCSRSPYSRSRSRSPGSRSSSRSCYYYESSHYRHRTHRNSPLYVRSRSRSPYSRRPRYDSYEEYQHERLKREEYRREYEKRESERAKQRERQRQKAIEERRVIYVGKIRPDTTRTELRDRFEVFGEIEECTVNLRDDGDSYGFITYRYTCDAFAALENGYTLRRSNETDFELYFCGRKQFFKSNYADLDSNSDDFDPASTKSKYDSLDFDSLLKEAQRSLRR
B2: Peroxisome proliferator-activated receptor gamma coactivator 1-alpha (Homo sapiens), Q9UBK2 (parent)
chain: B1 chain
partner: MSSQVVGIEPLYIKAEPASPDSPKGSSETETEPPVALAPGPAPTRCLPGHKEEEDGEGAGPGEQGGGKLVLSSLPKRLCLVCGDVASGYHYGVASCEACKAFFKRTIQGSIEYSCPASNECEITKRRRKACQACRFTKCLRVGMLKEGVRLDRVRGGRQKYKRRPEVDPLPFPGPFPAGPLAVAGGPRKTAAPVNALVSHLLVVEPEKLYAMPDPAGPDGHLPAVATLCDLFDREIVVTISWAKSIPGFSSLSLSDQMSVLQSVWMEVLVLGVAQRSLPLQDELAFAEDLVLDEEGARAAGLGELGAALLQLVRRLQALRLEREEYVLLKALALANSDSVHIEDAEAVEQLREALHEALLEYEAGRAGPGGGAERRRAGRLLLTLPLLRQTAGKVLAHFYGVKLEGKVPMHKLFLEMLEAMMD

Columns and labels:
rxra_human RXRA, P19793 = variants of: B1; details: with rxra_human RXRA
Chain of rxra_human RXRA, P19793 (P19793 whole entry): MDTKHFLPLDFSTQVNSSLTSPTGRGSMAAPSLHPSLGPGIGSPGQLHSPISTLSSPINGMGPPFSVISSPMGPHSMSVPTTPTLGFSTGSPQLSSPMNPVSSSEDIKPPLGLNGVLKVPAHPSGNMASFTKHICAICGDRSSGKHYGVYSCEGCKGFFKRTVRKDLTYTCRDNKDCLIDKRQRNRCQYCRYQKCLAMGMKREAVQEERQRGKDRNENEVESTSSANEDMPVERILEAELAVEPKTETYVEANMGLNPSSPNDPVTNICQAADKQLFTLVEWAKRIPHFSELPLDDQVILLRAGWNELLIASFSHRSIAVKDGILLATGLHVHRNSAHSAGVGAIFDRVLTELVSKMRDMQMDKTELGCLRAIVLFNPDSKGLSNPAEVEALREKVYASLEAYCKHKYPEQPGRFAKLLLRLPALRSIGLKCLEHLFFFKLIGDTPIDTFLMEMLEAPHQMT

esr1_human ESR1, P03372 = variants of: B1; details: with esr1_human ESR1, P03372
Chain of esr1_human ESR1, P03372 (P03372 whole entry): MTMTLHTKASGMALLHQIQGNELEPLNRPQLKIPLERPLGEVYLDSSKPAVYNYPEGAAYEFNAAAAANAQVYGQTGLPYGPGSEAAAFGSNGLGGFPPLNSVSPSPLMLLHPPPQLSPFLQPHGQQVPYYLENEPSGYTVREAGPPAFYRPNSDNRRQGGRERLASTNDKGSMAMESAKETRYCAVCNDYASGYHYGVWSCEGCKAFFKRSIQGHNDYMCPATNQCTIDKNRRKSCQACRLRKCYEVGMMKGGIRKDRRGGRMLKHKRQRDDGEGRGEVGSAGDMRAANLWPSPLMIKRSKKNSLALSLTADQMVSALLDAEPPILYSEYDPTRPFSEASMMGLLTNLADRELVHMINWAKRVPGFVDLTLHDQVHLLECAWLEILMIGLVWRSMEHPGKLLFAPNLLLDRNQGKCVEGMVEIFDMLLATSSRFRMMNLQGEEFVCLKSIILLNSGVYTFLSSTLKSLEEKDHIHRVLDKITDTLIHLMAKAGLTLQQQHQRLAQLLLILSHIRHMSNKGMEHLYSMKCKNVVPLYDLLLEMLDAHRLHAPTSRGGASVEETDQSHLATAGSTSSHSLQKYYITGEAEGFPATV

err1_human ESRRA, P11474 [1] = variants of: B2; details: with err1_human ESRRA
err1_human ESRRA, P11474 [2] = variants of: B2; details: with err1_human ESRRA; remark: listed apart in the source

Variant | effect of a mutation on the interaction (rxra_human RXRA, P19793) | effect of a mutation on the interaction (esr1_human ESR1, P03372) | effect of a mutation on the interaction (err1_human ESRRA, P11474 [1]) | effect of a mutation on the interaction (err1_human ESRRA, P11474 [2])
L147A;L148A;L210A;L211A | disrupting interaction strength | disrupting interaction strength |  | 
L147A;L148A | disrupting interaction strength | decreasing interaction strength |  | 
L210A;L211A | decreasing interaction strength | with no effect |  | 
L147A;L148A |  |  | decreasing interaction strength | with no effect
L147A;L148A;L210A;L211A |  |  | disrupting interaction strength | 
L210A;L211A |  |  | decreasing interaction strength | with no effect
